Laboratory results: patent US20120282637A1 (Sanofi, published 2012)

Key:
[1] = target: T1, sRAGE (V-C1-C2) lot LP08062 (human, UniProt Q15109 23-331, limits assumed); assay: SPR (Biacore), mAb captured on anti-mouse Fc, sRAGE 15 nM, Langmuir 1:1
T1 construct: domain: V-C1-C2; also called Human RAGE; LP08062 (Rage)
Procedure: The assay is based on a capture assay using immobilized anti-mouse Fc IgG on CM5 chip. For immobilization of anti-Fc antibody HBS-EP was used as running buffer. Standard amine coupling to a CM5 chip was carried out at a contact time of 11 min and a flow rate of 10 μl/min. 10 mM Sodium Acetate pH 5.0 was used as immobilization buffer. The protein concentration (anti-mouse Fc, Biacore BR-1008-38) was 100 μg/mL.
For binding analysis SN anti-RAGE mAb diluted in running buffer at 1/10 (flow rate 5 μl/min) and sRAGE (V-C1-C2) lot LP08062 diluted in running buffer at 15 nM (flow rate 50 μl/min) was used as […], respectively (running buffer: HBS-P+BSA 12 mg/mL+CM Dextran 12 mg/mL and Regeneration solution: 10 mM Glycine pH 1.7). Langmuir 1:1 analysis was used as fitting model.

[2] = target: rat sRAGE (rat, UniProt Q63495 23-341, limits assumed); assay: ELISA, O.D. 450 nm, one bar per species; plate format and antibody concentration not given
Sequence of rat sRAGE (Q63495 23-341 limits assumed): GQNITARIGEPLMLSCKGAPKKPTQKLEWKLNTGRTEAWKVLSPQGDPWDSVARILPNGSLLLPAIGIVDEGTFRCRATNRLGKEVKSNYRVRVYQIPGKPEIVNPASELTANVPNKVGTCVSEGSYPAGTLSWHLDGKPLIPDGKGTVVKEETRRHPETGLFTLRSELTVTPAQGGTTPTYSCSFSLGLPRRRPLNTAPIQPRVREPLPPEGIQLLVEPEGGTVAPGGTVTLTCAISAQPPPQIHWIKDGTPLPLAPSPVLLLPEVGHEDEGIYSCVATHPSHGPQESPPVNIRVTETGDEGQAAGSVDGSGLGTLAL

[3] = target: mouse sRAGE (mouse, UniProt Q62151 23-340, limits assumed); assay: as above
Sequence of mouse sRAGE (Q62151 23-340 limits assumed): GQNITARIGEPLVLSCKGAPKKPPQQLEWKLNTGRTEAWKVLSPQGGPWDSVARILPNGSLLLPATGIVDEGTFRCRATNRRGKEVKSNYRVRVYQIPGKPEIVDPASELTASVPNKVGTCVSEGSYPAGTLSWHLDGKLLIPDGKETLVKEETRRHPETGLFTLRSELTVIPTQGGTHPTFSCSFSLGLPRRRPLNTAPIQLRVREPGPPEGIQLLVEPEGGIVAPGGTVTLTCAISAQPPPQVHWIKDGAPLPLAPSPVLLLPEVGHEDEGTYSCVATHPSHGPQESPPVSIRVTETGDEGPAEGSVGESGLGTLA

[4] = target: T2, RAGE C2 domain (UniProt Q15109 235-327, limits assumed); assay: domain mapping, Table 1
T2 construct: domain: C2 domain
T2 sequence (Q15109 235-327 limits assumed): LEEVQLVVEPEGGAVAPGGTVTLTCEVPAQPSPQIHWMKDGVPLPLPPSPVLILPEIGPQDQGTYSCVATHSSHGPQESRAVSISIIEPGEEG

T1 sequence (Q15109 23-331 limits assumed): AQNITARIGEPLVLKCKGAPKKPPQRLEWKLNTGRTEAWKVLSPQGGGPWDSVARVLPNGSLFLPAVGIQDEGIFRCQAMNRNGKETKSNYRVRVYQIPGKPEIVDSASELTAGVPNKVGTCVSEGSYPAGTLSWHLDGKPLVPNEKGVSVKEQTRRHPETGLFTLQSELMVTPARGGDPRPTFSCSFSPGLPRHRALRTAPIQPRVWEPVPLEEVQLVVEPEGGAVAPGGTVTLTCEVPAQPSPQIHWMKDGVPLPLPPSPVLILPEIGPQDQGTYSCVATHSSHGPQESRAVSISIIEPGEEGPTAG

Row | Binder | Kd [1] | koff [1] | kon [1] | binding result [2] | binding result [3] | binding result [4]
1 | 173 RAGE-1 (antibody, V domains shown, Anti-RAGE monoclonal antibody from a hybridoma, captured by anti-mouse Fc; also called LP08107) VH: EVKLEESGGGLVQPGGSMKLSCVASGFTFSNYWMNWVRQSPEKGLEWVAEIRLKSNNYATHYAESVKGRFTISRDDSKSSVYLQMNDLRAEDPGIYYCIRDYGNYAMDHWGQGTSVTVSS VL: DIVMTQSQKFMSTSVGDRVSVTCKASQNVGTNVAWYQQKPGQSPKALIYSASYRYSGVPDRFTGSGSGTDFTLTISNVQSEDLAEYFCQQYNSYPLTFGAGTKLELK | 0.678 nM | 0.00227 s⁻¹ | 3.35e+06 M⁻¹ s⁻¹ | no binding (tested: not given) | no binding (tested: not given) | no binding
2 | 250 RAGE-1 (antibody, V domains shown, Anti-RAGE monoclonal antibody from a hybridoma, captured by anti-mouse Fc; also called Protein 250 RAGE-1) VH: EVKLEESGGGLVQPGGSMKLSCVASGFTFSNYWMNWVRQSPEKGLEWVAEIRLKSNNYATHYAESVKGRFTISRDDSKSSVYLQMNNLRAEDTGIYFCIRDYGNYAMDYWGQGTSVTVSS VL: DIVMTQSQKFMSTSVGDRVSVTCKASQNVGTNVAWYQQKPGQSPKALIYSASYRYSGVPDRFTGSGSGTDFTLTISNVQSEDLAEFFCQQYNSYPLTFGAGTKLELK | 0.556 nM | 0.00199 s⁻¹ | 3.58e+06 M⁻¹ s⁻¹ | no binding (tested: not given) | no binding (tested: not given) | –
3 | 347 RAGE-1 (antibody, V domains shown, Anti-RAGE monoclonal antibody from a hybridoma, captured by anti-mouse Fc) VH: QVQLQQSGAELAKPGASVKMSCRASGYTFTDYWMHWVKQRPGQGLEWIGFINPSTVYTEYIPKFKDKATLTADKSSSTAYMQLSSLTSEDSAVYYCARSDGGWYFDVWGAGTTVTVSS VL: DIQMTQSSSYLSVSLGGRVTITCKASDRINYWLAWYQQKPGNAPRLLISGATTLETGVPSRFSGSGSGKDYTLSITSLQTEDVATYYCQQYWSTPYTFGGGTKLELK | 0.666 nM | 0.00227 s⁻¹ | 3.41e+06 M⁻¹ s⁻¹ | no binding (tested: not given) | no binding (tested: not given) | –
4 | 183 RAGE-1 (antibody, V domains shown, Anti-RAGE monoclonal antibody from a hybridoma, captured by anti-mouse Fc; also called Protein 183 RAGE-1) VH: EVQLQQSGTVLARPGASVKMSCKASGYSFTSYWMHWVKQRPGQGLEWIGAIFPGNSDTTYNQKFKGKAKLTAVTSASTAYMELSSLTNEDSAVYYCTGLRRGFPYWGQGTLVTVSV VL: NIVMTQSPKSMSMSVGERVTLSCKASENVGTYVSWYQQKPEQSPKLLIYGASNRYTGVPDRFTGSGSATDFTLTISSVQAEDLADYHCGQSYSYPYTFGGGTKLEIK | 1.73 nM | 0.00273 s⁻¹ | 1.58e+06 M⁻¹ s⁻¹ | – | – | –
5 | 184 RAGE-1 (antibody, V domains shown, Anti-RAGE monoclonal antibody from a hybridoma, captured by anti-mouse Fc; also called Protein 184 RAGE-1) VH: QVQLQQSGAELVRPGTSVKVSCKASGYAFTNYLIEWVKQRPGQGLEWIGMINPGSGGTNYNEKFKGKATLTADKSSSTAYMQLSSLTSDDSAVYFCARGRGGHYRYFDVWGAGTTVTVSS VL: DIVLTQSPASLAVSLGQRATISCRASKSVSTSGYSYMHWYQQKPGQPPKLLIYLASHLESGVPARFSGSGSGTDFSLNIHPVEEEDAATYYCQHSRELPWTFGGGTKLEIK | 0.595 nM | 0.00163 s⁻¹ | 2.74e+06 M⁻¹ s⁻¹ | – | – | –
6 | 259 RAGE-1 (antibody, V domains shown, Anti-RAGE monoclonal antibody from a hybridoma, captured by anti-mouse Fc; also called Protein 259 RAGE -1) VH: QVQLQQSGAELVRPGTSVKVSCKASGYAFTNYLIDWVNQRPGQGLEWIGVINPGSGGTNYNEKFTGKATLTADKSSSTAYMQLSSLTSDDSAVYFCARRRVDTMDYWGQGTSVTVSS VL: QAVVTQESALTTSPGETVTLTCRSSTGAVTTSNYANWVQEKPDHLFTGLIGGTNNRAPGVPARFSGSLIGDKAALTITGAQTEDEAIYFCALWYSNHWVFGGGTKLTVL | 0.516 nM | 0.00224 s⁻¹ | 4.34e+06 M⁻¹ s⁻¹ | – | – | –
7 | 499 RAGE-1 (antibody, V domains shown, Anti-RAGE monoclonal antibody from a hybridoma, captured by anti-mouse Fc; also called Protein 499 RAGE-1) VH: EVQLQQSGTVLARPGASVKMSCKASGYTFTSYWMHWVKQRPGQGLEWIGAIYPGDSDTYYNQKFKGKAKLTAVTSTSTAYMELSSLTNEDSAVYYCTRNWDYWGQGTTLTVSS VL: DIVMTQSHKFMSTSVGDRVSITCKASQDVSTAVAWYQQKPGQSPKLLIYSASYRYTGVPDRFTGSGSGTDFTFTISSVQAEDLAVYYCQQHYNTPRTFGGGTKLEIK | 0.793 nM | 0.00157 s⁻¹ | 1.98e+06 M⁻¹ s⁻¹ | – | – | –
8 | 529 RAGE-1 (antibody, V domains shown, Anti-RAGE monoclonal antibody from a hybridoma, captured by anti-mouse Fc) VH: EIQLQQTGPELVKPGASVKISCKASGYSFTDYIMLWVKQSHGKSLEWIGNINPYYGSTFYNLKFKGKATLTVDKSSSTAYMQLNSLTSEDSAVYYCARSDYWYFDVWGAGTTVTVSS VL: QAVVTQESALTTSPGETVTLTCRSSTGAVTTSNYANWVQEKPDHLFTGLIGGTNNRSPGVPARFSGSLIGDKAALTITGAQTEDEAIYFCALWYSNHLVFGGGTKLTVL | 0.552 nM | 0.00169 s⁻¹ | 3.06e+06 M⁻¹ s⁻¹ | – | – | –

These reach a lower Kd [1]. Values come first.

Row | Kd [1] | koff [1] | kon [1] | binding result [2] | binding result [3] | binding result [4] | Binder
9 | 0.236 nM | 0.00136 s⁻¹ | 5.76e+06 M⁻¹ s⁻¹ | no binding (tested: not given) | no binding (tested: not given) | – | 130 RAGE-1 (antibody, V domains shown, Anti-RAGE monoclonal antibody from a hybridoma, captured by anti-mouse Fc; also called Protein 130 RAGE-1) VH: EVQLVESGGGLVKPGGSLKLSCAASGFTFSSYVMSWVRQSPEKRLEWVAEISSGGSYTYYPDTVTGRFTISRDNDKNTLYLEMSSLRSEDTAMYYCARPPYGKDAMDYWGQGTSVTVSS VL: QIVLTQSPAIMSASPGEKVTMTCSASSSVSYMHWYQQKSGTSPKRWISDTSKLASGVPARFSGSGSGTSYSLTISSMEAEDAATYYCQQWSSNPPTFGGGTKLEIK
10 | 0.319 nM | 0.00177 s⁻¹ | 5.54e+06 M⁻¹ s⁻¹ | no binding (tested: not given) | no binding (tested: not given) | – | 316 RAGE-1 (antibody, V domains shown, Anti-RAGE monoclonal antibody from a hybridoma, captured by anti-mouse Fc; also called Protein 316 RAGE-1) VH: QVQLQQSGPELVRPGASVKMSCKASGYTFTSYWMHWVKQRPGQGLEWIGMIDPSNSETRLNQKFKDKATLNVDKSSNTAYMQLSSLTSEDSAVYYCARNFYGSSLRVWGAGTTVTVSS VL: DIVLTQSPASLAVSLGQRATISCRASKSVSISGYSYLHWNQQKPGQSPKLLIYLASNLESGVPARFSGSGSGTDFTLNIHPVEEEDAATYYCQHSRELPYTFGGGTKLEIK
11 | 0.276 nM | 0.00107 s⁻¹ | 3.88e+06 M⁻¹ s⁻¹ | – | – | – | 210 RAGE-1 (antibody, V domains shown, Anti-RAGE monoclonal antibody from a hybridoma, captured by anti-mouse Fc; also called Protein 210 RAGE-1) VH: EIQLQQTGPELVKPGASVKISCKASGYSFTDYIMVWVKQSHGKSLEWIGTINPYYGSTSYNLKFKGKATLTVDKSSSTANMQLNSLTSEDSAVYYCARLRLYAMDYWGQGTSVTVSS VL: QAVVTQESALTTSPGETVTLTCRSSTGAVTTSNYANWVQEKPDHLFTGLIGGTNNRAPGVPARFSGSLIGDKAALTITGAQTEDEAIYFCALWYSNHFWVFGGGTKLTVL
12 | 0.371 nM | 0.00196 s⁻¹ | 5.29e+06 M⁻¹ s⁻¹ | – | – | – | 283 RAGE-1 (antibody, V domains shown, Anti-RAGE monoclonal antibody from a hybridoma, captured by anti-mouse Fc; also called Protein 283 RAGE-1) VH: QVQLQQSGAELVRPGTSVKVSCKASGYAFTNYLIEWVKQRPGQGLEWIGVINPGSGGTNYSERFKGKATLTADKSSSTAYMQLSSLTSDDSAVYFCASYRYDGGMDYWGQGTSVTVSS VL: QAVVTQESALTTSPGETVTLTCRSSTGAVTTSNYANWVQEKPDHLFTGLIRGTNNRAPGVPARFSGSLIGDKAALTITGAQTEDEAIYFCALWYSNHWVFGGGTKLTVL
13 | 0.0858 nM | 0.000103 s⁻¹ | 1.2e+06 M⁻¹ s⁻¹ | – | – | – | 501-4 RAGE-1 (antibody, V domains shown, Anti-RAGE monoclonal antibody from a hybridoma, captured by anti-mouse Fc) VH: EVMLVDSGGGLVKPGGSLKLSCAASGFTFRSYAMSWVRQTPEKRLEWVATISSGGSYTYYPDSVRGRFTTSRDNGKNTLYLQMSSLRSEDTAMYYCARHGGNYSAWFTYWGQGTLVTVSA VL: QAVVTQESALTTSPGETVTLTCRSSTGAVTTSNYANWVQEKPDHLFTGLIGGTNNRAPDVPARFSGSLIGDKAALTITGAQTEDEAIYFCALWYSNHWVFGGGTKLTVL
14 | 0.462 nM | 0.00123 s⁻¹ | 2.66e+06 M⁻¹ s⁻¹ | – | – | – | 95 RAGE-1 (antibody, V domains shown, Anti-RAGE monoclonal antibody from a hybridoma, captured by anti-mouse Fc; also called Protein 95 RAGE-1) VH: QVQLQQPGAELVKPGASVKLSCKASGYTFTSYWMHWVKQRPGQGLEWIGESNPSNGRTNYNEKFKNKATLTVDKSSSTAYMQLSSLTSEDSAVYYCARAPYYGFDYWGQGTTLTVSS VL: QAVVTQESALTTSPGETVTLTCRSSTGAVTTSNYANWVQEKPDHLFTGLTGGTNNRAPGVPARFSGSLIGDKAALTITGAQTEDEAIYFCALWYSNHWVFGGGTKLTVL
15 | 0.303 nM | 0.00157 s⁻¹ | 5.19e+06 M⁻¹ s⁻¹ | – | – | – | 140 RAGE-1 (antibody, V domains shown, Anti-RAGE monoclonal antibody from a hybridoma, captured by anti-mouse Fc; also called Protein 140 RAGE-1) VH: QVQLQQPGAELVKPGASVRLSCKASGYTFTSYWMHWVKQRPGQGLEWIGEINPSNGRTNYNEKFKSKATLTVDKSSSTAYMQLSSLTSEDSAVYYCARDGLGYRPIAMDYWGQGTSVTVSS VL: QIVLTQSPAIMSASPGEKVTISCSASSSVSYMYWYQQKPGSSPKPWIYRTSNLASGVPARFSGSGSGTSYSLTISSMEAEDAATYYCQQYHSYPPMYTFGGGTKLEIK
